Assay [1] has as its target recombinant human IL17A/F dimer protein (SinoBiological, Inc., CT047-HNAE) (human) (UniProt Q16552). The assay can be described thus: competition ELISA: IL17RA-Fc coated (competitor), IL17A/F-Biotin at 0.8 µg/mL, antibody varied.
The target of assay [2] is recombinant human IL17A protein (human) (UniProt Q16552). The assay can be described thus: cell-based or functional assay.
The target of assay [3] is recombinant human IL17A/F dimer protein (SinoBiological, Inc., CT047-HNAE) (human) (UniProt Q16552). The assay can be described thus: cell-based or functional assay.
The target is the same in assay [4]. The assay can be described thus: Octet (BLI), biotinylated IL17A/F, antibody 0.90-13.9 nM. A general note: In BLI a coated tip is dipped into the sample, and binding shifts an interference pattern.
Assay [5] addresses recombinant human IL17A protein (human) (UniProt Q16552). The assay can be described thus: Octet (BLI), biotinylated IL17A, antibody 0.90-13.9 nM.
The target of assay [6] is recombinant human IL17A/F dimer protein (SinoBiological, Inc., CT047-HNAE) (human) (UniProt Q16552). The assay can be described thus: ELISA: IL17A/F coated at different concentrations, antibody fixed at 2 µg/mL, anti-human IgG Fc/HRP; EC50 is on the antigen concentration. On the technique in general: ELISA stands for enzyme-linked immunosorbent assay.
Assay [7] deals with recombinant human IL17A protein (human) (UniProt Q16552). The assay can be described thus: ELISA: IL17A coated at different concentrations, antibody fixed at 2 µg/mL, anti-human IgG Fc/HRP; EC50 is on the antigen concentration.
Assay [8] has the same target. The assay can be described thus: competition ELISA: IL17A coated, competitor IL17RA-His-biotin at 2 µg/mL, antibody varied.

recombinant human IL17A protein (human), sequence (Q16552 24-155 limits assumed): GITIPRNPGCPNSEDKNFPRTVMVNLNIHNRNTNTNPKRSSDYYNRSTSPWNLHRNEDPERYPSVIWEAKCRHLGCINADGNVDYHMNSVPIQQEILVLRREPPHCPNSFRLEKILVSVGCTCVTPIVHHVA
recombinant human IL17A/F dimer protein (SinoBiological, Inc., CT047-HNAE) (human), sequence (Q16552 24-155 limits assumed, chain 1 of 2): as the sequence (Q16552 24-155 limits assumed) above
recombinant human IL17A/F dimer protein (SinoBiological, Inc., CT047-HNAE) (human), sequence (Q96PD4 31-163 limits assumed, chain 2 of 2, further chain): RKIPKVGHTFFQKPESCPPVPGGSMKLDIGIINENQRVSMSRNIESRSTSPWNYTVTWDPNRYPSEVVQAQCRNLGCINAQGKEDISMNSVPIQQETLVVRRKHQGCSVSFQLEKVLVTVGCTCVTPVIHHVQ

For “Taltz biosimilar (SinoCelltech Co., Ltd.) (antibody)”, the maximum inhibition rate in assay [1] was 75%. In assay [2], the EC50 of blocking IL17A-induced IL-6 secretion of HFF cells was found to be 0.247 µg/mL and the maximum inhibition rate of IL17A-induced IL-6 secretion of HFF cells was 97.3%.

One may read the Kd as the constant that tells how readily two partners part at equilibrium. Regarding COSENTYX (Norvatis, SHM12) (antibody), in assay [3], the EC50 (µg/mL), blocking IL17A/F-induced IL6 secretion of HFF cells stood at 2.25 µg/mL and the Maximum neutralization rate (%), IL17A/F-induced IL6 secretion of HFF cells amounted to 79.5%. In assay [2], the EC50 (µg/mL), blocking IL17A-induced IL6 secretion of HFF cells is 0.22 µg/mL and the Maximum neutralization rate (%), IL17A-induced IL6 secretion of HFF cells was 51.6%. In addition, the Kd in assay [4] is 1.1 nM. In assay [5], the Kd amounted to 0.0955 nM.

What is called EC50 is the concentration at which the effect is half-maximal. As for “COSENTYX biosimilar (SinoCelltech Co., Ltd.) (antibody)”, the EC50 was 0.0639 µg/mL in assay [6] and 0.0748 µg/mL in assay [7].

By IC50 is commonly meant the midpoint of a concentration-inhibition curve. For the substance Taltz (Eli Lilly) (antibody), in assay [3], the EC50 (µg/mL), blocking IL17A/F-induced IL6 secretion of HFF cells was 1.1 µg/mL and the Maximum neutralization rate (%), IL17A/F-induced IL6 secretion of HFF cells is 76.3%. Further, in assay [2], the EC50 (µg/mL), blocking IL17A-induced IL6 secretion of HFF cells stood at 0.19 µg/mL and the Maximum neutralization rate (%), IL17A-induced IL6 secretion of HFF cells came to 95.9%. Also, in assay [8], the IC50 worked out at 0.5 µg/mL and the maximum inhibition rate was 89.5%.

(Values after patent US20220144936A1.)
